Laboratory results reported in patent publication US8980614B2, “Staphylococcus haemolyticus prophage φSH2 endolysin is lytic for Staphylococcus aureus” (The United States of America, as represented by The …, priority 2012, dated 2015).

B1: D1: Isolated amidase domain (178-397), SEQ ID NO:20 (protein)
chain: MQAPKQKVKKASTKKALPKITKHITGYNMDKRGYNPKGVVLHNDAGGMNYKQYYNNLVNANYDRLARGIAHAYVDRTGIWEAIDESRIAWHVADGTRPGSGNHDFYGIEVNQSLRASDKEFLENEQAVFQFAAEKLKKWGLPANRNTVRLHNEFSQTSCPHRSMVLHTGLDPLYHSITEHARLKLKDYFIKQIRAYMDGKKPTSKVVVSKPGSASTPATRKLEHHHHHH
modifications: Bacteriophage Phi SH2
B2: B1: Fusion of intact φSH2 CHAP and SH3b domains (1-166 + 341-493), SEQ ID NO:12 (protein)
chain: MKTQAEINKRLDAYRKGTVDSPYRVKVWTSYDNRFYPMEPGCIDVDKSFHAQCADLTIDYILWLTDNEFRIRGNAKDAINPKKNKLPEGWKIVLNRPSTVPRKGWIAVFTDGTYWEYGHIGMVYDGGNTSRFQILEQNWNGWANKKPSLRWDNYYGLTHFIVPPVALEVLHTGLDPLYHSITEHARLKLKDYFIKQIRAYMDGKKPTSKVVVSKPGSASTPATRKDANGYRENPHGTLYKEEHATFTANANIITRYVGPFTNMPQAGILKAGQTIIYDEVMKQDGYIWVGYTAYNGKRVYLPVRKWNRETDSVGKLWGVISLEHHHHHH
modifications: Bacteriophage Phi SH2
B3: C1: CHAP plus amidase domain, lacks SH3b (1-397), SEQ ID NO:16 (protein)
chain: MKTQAEINKRLDAYRKGTVDSPYRVKVWTSYDNRFYPMEPGCIDVDKSFHAQCADLTIDYILWLTDNEFRIRGNAKDAINPKKNKLPEGWKIVLNRPSTVPRKGWIAVFTDGTYWEYGHIGMVYDGGNTSRFQILEQNWNGWANKKPSLRWDNYYGLTHFIVPPVAKENKAVSSSKQQAPKQKVKKASTKKALPKITKHITGYNMDKRGYNPKGVVLHNDAGGMNYKQYYNNLVNANYDRLARGIAHAYVDRTGIWEAIDESRIAWHVADGTRPGSGNHDFYGIEVNQSLRASDKEFLENEQAVFQFAAEKLKKWGLPANRNTVRLHNEFSQTSCPHRSMVLHTGLDPLYHSITEHARLKLKDYFIKQIRAYMDGKKPTSKVVVSKPGSASTPATRKLEHHHHHH
modifications: Bacteriophage Phi SH2
B4: E1: Amidase plus SH3b domain (178-493), SEQ ID NO:24 (protein)
chain: MQAPKQKVKKASTKKALPKITKHITGYNMDKRGYNPKGVVLHNDAGGMNYKQYYNNLVNANYDRLARGIAHAYVDRTGIWEAIDESRIAWHVADGTRPGSGNHDFYGIEVNQSLRASDKEFLENEQAVFQFAAEKLKKWGLPANRNTVRLHNEFSQTSCPHRSMVLHTGLDPLYHSITEHARLKLKDYFIKQIRAYMDGKKPTSKVVVSKPGSASTPATRKDANGYRENPHGTLYKEEHATFTANANIITRYVGPFTNMPQAGILKAGQTIIYDEVMKQDGYIWVGYTAYNGKRVYLPVRKWNRETDSVGKLWGVISLEHHHHHH
modifications: Bacteriophage Phi SH2

Tests used:
[1] = tested on: S. aureus Newman cells; assay: Zymogram with S. aureus Newman cells embedded in the gel; assay type: cell-based; conditions: 5 μg protein
Method: All purified proteins were analyzed with 15% SDS-PAGE, using a Kaleidoscope Precision Plus Protein Standard (BioRad, Hercules, Calif.). For zymograms, a 300 mL culture volume equivalent of live mid-log phase (OD600nm=0.4-0.6) cells of S. aureus strain Newman was embedded in the gel during polymerization. The protein samples were boiled in Laemmli sample buffer (BioRad) with β-mercaptoethanol, and electrophoresed with identical buffers and voltage for one hour in both the SDS-PAGE and the zymogram using a Mini-Protean TETRA gel system (BioRad). SDS gels were Coomassie stained and zymograms were washed in excess water and further incubated in deionized water for 60 min, followed by incubation in 10 mM Tris, pH 8.0 with 150 mM or 300 mM NaCl for 80 min. Areas of clearing in the turbid zymogram gel indicate a lytic protein in the gel.

[2] = tested on: S. aureus Newman cells; assay: Turbidity reduction assay; assay type: cell-based, Staphylococcus aureus; conditions: 1 μM protein; for lytic activity in turbidity reduction assays (in words): different NaCl concentrations; for lytic (specific) activity compared with the full length φSH2 lysin: at optimum salt concentration
Method: The turbidity reduction assay measures a decrease in optical density of a bacterial suspension due to lysis of the target bacteria by a lytic protein. The assays were performed in a 96-well dish format essentially as described previously (Donovan et al. 2006, supra). In order to reduce the variability of the assay, frozen stocks of S. aureus Newman substrate cells were prepared in a large batch as described by Becker et al. (2009b, supra). Immediately prior to the assay, the frozen cells were thawed, washed, and resuspended in the desired assay buffer such that when 100 μl of cell suspension were added to 100 μl of lysis buffer+/−protein, the final suspension has an OD600nm of ˜1.0.
Protein constructs were assayed at a concentration of 1 μM, and the assay was performed at room temperature, measuring the OD600nm at 1 min intervals for 45 min. Buffer without enzyme served as the control. The steepest slopes of the resulting lysis curves, which correspond to the lytic activities of the proteins, were determined by a sliding window over each group of three consecutive time points for the entire 45 min period. Specific activities were expressed as ΔOD600nm/min/μM, and the “no enzyme” control value was subtracted from each experimental value.
In order to determine the effect of salt concentration on lytic activity, turbidity reduction assays were performed in 10 mM Tris buffers at pH 7.5 with varying NaCl concentrations between 0 mM and 600 mM. Accordingly, the influence of pH was determined by using a series of different buffers with pH values ranging from 3.5 to 10.0. Citrate buffers were used for pH 3.5, 4.5, 5.5, and 6.0, MOPS buffers for pH 6.5, 7.0, and 7.5, Tris buffers for pH 8.0 and 9.0, and Carbonate/bicarbonate buffer for pH 10.0. The concentration of the buffer substance in all buffers used was 20 mM, and the NaCl concentration was 200 mM. To test the effect of bivalent metal ions, assays were performed in 10 mM Tris, 200 mM NaCl, pH 7.5 supplemented with MgCl2, MnCl2, or CaCl2 at different concentrations (0.1 mM, 1 mM, 10 mM), buffer without metal ions serving as control.

[3] = after incubation in deionized water for 60 min
[4] = water 60 min, then 10 mM Tris, 150 mM NaCl, pH 8.0 up to 80 min

Molecule | lysis in zymogram ([1]; water 60 min, then 10 mM Tris, 300 mM NaCl, pH 8.0 for 80 min) | lytic activity in turbidity reduction assays (in words) [2] | lysis in zymogram [1, 3] | lysis in zymogram [1, 4] | lytic (specific) activity compared with the full length φSH2 lysin [2]
B1 | pronounced lytic band | only background levels of activity |  |  | 
B2 |  | completely abolished its activity | faint zones of lysis | considerably weaker | 
B3 |  | drastically reduced activity | faint zones of lysis | considerably weaker | about half the activity
B4 |  |  |  | only very faint lysis | about half the activity
